Reference: the Human Domainome abundance scans (Beltran et al. 2025)
± gives the uncertainty stated by the source.

B1: Gamma-crystallin C, residues 4 to 79; numbered along this chain, P07315 (parent)
chain: ITFYEDRAFQGRSYETTTDCPNLQPYFSRCNSIRVESGCWMLYERPNYQGQQYLLRRGEYPDYQQWMGLSDSIRSC

Variants of: B1
Assay: abundance fitness (aPCA) (normalised: wild type 0, dead -1); higher = more abundant; growth selection in yeast, the domain comes from the species named
Details: Homo sapiens

Which abundance fitness does the source give for ITFYEDRAFQGRSYETTTDCPNLQPYFSRCNSIRMESGCWMLYERPNYQGQQYLLRRGEYPDYQQWMGLSDSIRSC [V35M] here?
The abundance fitness was -0.84 ± 0.19.

With ITFYEDRAFQGRSYETTTDCPNLQPYFSRCNSIRVESGCWMLYERPIYQGQQYLLRRGEYPDYQQWMGLSDSIRSC [N47I] as the variant, how does the abundance fitness read?
Its abundance fitness is -0.308 ± 0.28.

Which abundance fitness does the source give for ITFYEDRAFQGRSYETTTDCPNLQPYFSRCNSIRVESGCWMLYERPSYQGQQYLLRRGEYPDYQQWMGLSDSIRSC [N47S] here?
The abundance fitness was -0.115 ± 0.085.

Which abundance fitness does the source give for ITFYEDRAFQGRSYETTTDCPNLQPYFSRCNSIEVESGCWMLYERPNYQGQQYLLRRGEYPDYQQWMGLSDSIRSC [R34E] here?
The abundance fitness was -0.373 ± 0.12.

Which abundance fitness does the source give for ITFYEDRAFQGRSYETTTDCPNLQPYFSRCNSITVESGCWMLYERPNYQGQQYLLRRGEYPDYQQWMGLSDSIRSC [R34T] here?
Its abundance fitness is 0.047 ± 0.28.

For ITFYEDRAFQGRSYETTTDCPCLQPYFSRCNSIRVESGCWMLYERPNYQGQQYLLRRGEYPDYQQWMGLSDSIRSC [N22C], which abundance fitness is on record?
The abundance fitness was -0.123 ± 0.31.

Which abundance fitness does the source give for ITFYEDRAFQGRSYETTTDCPNLQPYFSRCNSIRVESGCWYLYERPNYQGQQYLLRRGEYPDYQQWMGLSDSIRSC [M41Y] here?
Its abundance fitness is 0.032 ± 0.1.

Which abundance fitness does the source give for ITFYEDRAFQGRSYETTTDCPNLQPYFSRCNSIRVESGCWMLYERPNYQGQQYLLRRGEYPDYQQWPGLSDSIRSC [M67P] here?
The abundance fitness was -0.057 ± 0.069.

For ITFYEDRAFQGRSYETTTDCPNLQPYFSRCNSIRVESGCWMLYERPNYQGQQYLLRRGEYPDYQQWKGLSDSIRSC [M67K], which abundance fitness is on record?
Its abundance fitness is -0.043 ± 0.15.

With ITFYEDRAFQGRSYETTTDCPNLQPYFSRCNSIRVESGCWMLYERPNYQGQRYLLRRGEYPDYQQWMGLSDSIRSC [Q52R] as the variant, how does the abundance fitness read?
Its abundance fitness is -0.072 ± 0.073.

Which abundance fitness does the source give for ITFYEDRAFQGRSYETTNDCPNLQPYFSRCNSIRVESGCWMLYERPNYQGQQYLLRRGEYPDYQQWMGLSDSIRSC [T18N] here?
Its abundance fitness is 0.049 ± 0.12.

Which abundance fitness does the source give for IRFYEDRAFQGRSYETTTDCPNLQPYFSRCNSIRVESGCWMLYERPNYQGQQYLLRRGEYPDYQQWMGLSDSIRSC [T2R] here?
Its abundance fitness is -0.145 ± 0.099.

For IWFYEDRAFQGRSYETTTDCPNLQPYFSRCNSIRVESGCWMLYERPNYQGQQYLLRRGEYPDYQQWMGLSDSIRSC [T2W], which abundance fitness is on record?
The abundance fitness was -0.201 ± 0.12.

For ITFYEDRAFQGRSYETTTDCPNLQPYFSRCNSIRVESGWWMLYERPNYQGQQYLLRRGEYPDYQQWMGLSDSIRSC [C39W], which abundance fitness is on record?
Its abundance fitness is 0.031 ± 0.08.

With ITFYEDRAFQGRSYETTTDCPNLQPYFSRCNSARVESGCWMLYERPNYQGQQYLLRRGEYPDYQQWMGLSDSIRSC [I33A] as the variant, how does the abundance fitness read?
The abundance fitness was 0.054 ± 0.084.

For ITFYEDRAFVGRSYETTTDCPNLQPYFSRCNSIRVESGCWMLYERPNYQGQQYLLRRGEYPDYQQWMGLSDSIRSC [Q10V], which abundance fitness is on record?
The abundance fitness was 0.033 ± 0.073.

Which abundance fitness does the source give for ITFYEDRAFNGRSYETTTDCPNLQPYFSRCNSIRVESGCWMLYERPNYQGQQYLLRRGEYPDYQQWMGLSDSIRSC [Q10N] here?
Its abundance fitness is -0.094 ± 0.13.

Which abundance fitness does the source give for ITFYEDRAFLGRSYETTTDCPNLQPYFSRCNSIRVESGCWMLYERPNYQGQQYLLRRGEYPDYQQWMGLSDSIRSC [Q10L] here?
The abundance fitness was -0.123 ± 0.067.

Which abundance fitness does the source give for ITFYEDRAFQGRSYETTTDKPNLQPYFSRCNSIRVESGCWMLYERPNYQGQQYLLRRGEYPDYQQWMGLSDSIRSC [C20K] here?
The abundance fitness was -0.243 ± 0.32.

For ITFYEDRAFQGRSYETTTDCPNLQPYFSRCNSIRVESGCWMLYERPNYQGQQYLLRRGEYPDMQQWMGLSDSIRSC [Y63M], which abundance fitness is on record?
The abundance fitness was -0.12 ± 0.062.

With ITFYEDRAFQGRSYETTTDCPNLQPFFSRCNSIRVESGCWMLYERPNYQGQQYLLRRGEYPDYQQWMGLSDSIRSC [Y26F] as the variant, how does the abundance fitness read?
Its abundance fitness is 0.033 ± 0.12.

For ITFYEDRAFQGRSYETTTDCPNLQPLFSRCNSIRVESGCWMLYERPNYQGQQYLLRRGEYPDYQQWMGLSDSIRSC [Y26L], which abundance fitness is on record?
The abundance fitness was 0.037 ± 0.067.

For ITFYEDRAFQGRSYETTTDCPNLQPYFSRCNSIRVESGCRMLYERPNYQGQQYLLRRGEYPDYQQWMGLSDSIRSC [W40R], which abundance fitness is on record?
Its abundance fitness is -0.969 ± 0.13.

Which abundance fitness does the source give for ITFYEDRAFQGRSYETTTDCPNLQPYFSRCNSIRVESGCWMTYERPNYQGQQYLLRRGEYPDYQQWMGLSDSIRSC [L42T] here?
Its abundance fitness is -0.095 ± 0.16.

With ITFYEDRAFQGRSYETTTDCPNLQPYFSRCNPIRVESGCWMLYERPNYQGQQYLLRRGEYPDYQQWMGLSDSIRSC [S32P] as the variant, how does the abundance fitness read?
The abundance fitness was -0.857 ± 0.23.

Which abundance fitness does the source give for ITFYEDRAFQGRSYETTTDCPNLQPYFSRCNSIRVESGCWMLTERPNYQGQQYLLRRGEYPDYQQWMGLSDSIRSC [Y43T] here?
Its abundance fitness is -0.249 ± 0.21.

Which abundance fitness does the source give for ITFYEDRAFQGRSYETTTDCPNLQPYFSRCNSIRVESGCWMLYERPNYVGQQYLLRRGEYPDYQQWMGLSDSIRSC [Q49V] here?
The abundance fitness was -0.098 ± 0.097.

With ITFYEDRAFQGRSYETTTDCPNLQPYFSRCNSIRVESGCWMLYERPNYQGQQYLLRRGEYPDYQQWMGLSRSIRSC [D71R] as the variant, how does the abundance fitness read?
The abundance fitness was -0.011 ± 0.066.

With ITFYEDRAFQGRSYETTTDCPNLQPYFSRCNSIRVESGCWMLYERPNYQGQQYLLRRGEYPDYQQWMGLSKSIRSC [D71K] as the variant, how does the abundance fitness read?
Its abundance fitness is 0.094 ± 0.11.

Which abundance fitness does the source give for ITFYEDRAFQGFSYETTTDCPNLQPYFSRCNSIRVESGCWMLYERPNYQGQQYLLRRGEYPDYQQWMGLSDSIRSC [R12F] here?
The abundance fitness was 0.026 ± 0.11.

Which abundance fitness does the source give for ITFYEDRAFQGRSYETTTDCPNLQPYFSRYNSIRVESGCWMLYERPNYQGQQYLLRRGEYPDYQQWMGLSDSIRSC [C30Y] here?
Its abundance fitness is -0.472 ± 0.34.

With ITFYEDRAFQGRSYETTTDCPNLQPYFSRCNSIRVESGCWMLYERPNYQGQQYLLRRTEYPDYQQWMGLSDSIRSC [G58T] as the variant, how does the abundance fitness read?
Its abundance fitness is -0.102 ± 0.078.

For ITFYEDRAFQGRSYETTTDCPNLQPYFSRCNSIRVESGCWMLYERPNYQGQQYLLRRREYPDYQQWMGLSDSIRSC [G58R], which abundance fitness is on record?
Its abundance fitness is -0.16 ± 0.05.

Which abundance fitness does the source give for ITFYEDRAFQGRSYETTTDCPNLQPYFSRCNSIRVESGCWMLYERPNYQGQQYLLRRGEYPDYQQCMGLSDSIRSC [W66C] here?
Its abundance fitness is -0.168 ± 0.13.

For ITFYEDRAFQGRSYETTTDCPNLQCYFSRCNSIRVESGCWMLYERPNYQGQQYLLRRGEYPDYQQWMGLSDSIRSC [P25C], which abundance fitness is on record?
Its abundance fitness is 0.227 ± 0.19.

With ITFYEDRAFQGRSYETTTDCPNLQHYFSRCNSIRVESGCWMLYERPNYQGQQYLLRRGEYPDYQQWMGLSDSIRSC [P25H] as the variant, how does the abundance fitness read?
Its abundance fitness is -0.241 ± 0.37.
